The text below walks through data of article PMC3367090.

The target in this experiment is IpaD^Δ192-267 (IpaD distal domain deletion mutant) (S. flexneri) (UniProt P18013).

In general, stoichiometry N refers to the number of molecules, sites or subunits per partner or assembly. On to “IpaD^Δ192-267 (IpaD distal domain deletion mutant) (from UniProt P18013 15-332) (natural protein)”, for which the stoichiometry N stood at 5.
